Test results as given in patent US20250042984A1.

Assays:
[1] = target: VEGF-B (extracellular domain) (UniProt P49765); experiment: potency ELISA, VEGF-B coated plate; 160 mg/mL formulation in glass vials, 6 months at 25 C
[2] = target: VEGF-B (extracellular domain) (UniProt P49765); experiment: potency ELISA, VEGF-B coated plate; 160 mg/mL formulation in glass vials, 3 months at 25 C
[3] = target: VEGF-B (extracellular domain) (UniProt P49765); experiment: potency ELISA, VEGF-B coated plate; 160 mg/mL formulation in glass vials, 0 months (25 C table)
[4] = target: VEGF-B (extracellular domain) (UniProt P49765); experiment: potency ELISA, VEGF-B coated plate; 160 mg/mL formulation in glass vials, 1 month at 25 C
[5] = target: VEGF-B (extracellular domain) (UniProt P49765); experiment: potency ELISA, VEGF-B coated plate; 160 mg/mL formulation in glass vials, 3 months at 35 C
[6] = target: VEGF-B (extracellular domain) (UniProt P49765); experiment: potency ELISA, VEGF-B coated plate; 160 mg/mL formulation in glass vials, 3 months at 5 C
[7] = target: VEGF-B (extracellular domain) (UniProt P49765); experiment: potency ELISA, VEGF-B coated plate; 160 mg/mL formulation in glass vials, 1 month at 35 C
[8] = target: VEGF-B (extracellular domain) (UniProt P49765); experiment: potency ELISA, VEGF-B coated plate; 160 mg/mL formulation in glass vials, 0 months (35 C table)
[9] = target: VEGF-B (extracellular domain) (UniProt P49765); experiment: potency ELISA, VEGF-B coated plate, HRP detection, 4PL and parallel line analysis; 160 mg/mL formulation in glass vials, 0 months (5 C table)
[10] = target: VEGF-B (extracellular domain) (UniProt P49765); experiment: potency ELISA, VEGF-B coated plate; 160 mg/mL formulation in glass vials, 6 months at 35 C
[11] = target: VEGF-B (extracellular domain) (UniProt P49765); experiment: potency ELISA, VEGF-B coated plate; 160 mg/mL formulation in glass vials, 6 months at 5 C
[12] = target: VEGF-B (extracellular domain) (UniProt P49765); experiment: potency ELISA, VEGF-B coated plate; 160 mg/mL formulation in glass vials, 9 months at 35 C
[13] = target: VEGF-B (extracellular domain) (UniProt P49765); experiment: potency ELISA, VEGF-B coated plate; 160 mg/mL formulation in glass vials, 9 months at 25 C
[14] = target: VEGF-B (extracellular domain) (UniProt P49765); experiment: potency ELISA, VEGF-B coated plate; 160 mg/mL formulation in glass vials, 1 month at 5 C
[15] = target: VEGF-B (extracellular domain) (UniProt P49765); experiment: potency ELISA, VEGF-B coated plate; 160 mg/mL formulation in glass vials, 9 months at 5 C
[16] = target: VEGF-B (extracellular domain) (UniProt P49765); experiment: potency ELISA, VEGF-B coated plate; 160 mg/mL formulation in glass vials, 12 months at 35 C
[17] = target: VEGF-B (extracellular domain) (UniProt P49765); experiment: potency ELISA, VEGF-B coated plate; 160 mg/mL formulation in glass vials, 12 months at 25 C
[18] = target: VEGF-B (extracellular domain) (UniProt P49765); experiment: potency ELISA, VEGF-B coated plate; 160 mg/mL formulation in glass vials, 12 months at 5 C

Sequence of UniProt P49765 (P49765 22-207): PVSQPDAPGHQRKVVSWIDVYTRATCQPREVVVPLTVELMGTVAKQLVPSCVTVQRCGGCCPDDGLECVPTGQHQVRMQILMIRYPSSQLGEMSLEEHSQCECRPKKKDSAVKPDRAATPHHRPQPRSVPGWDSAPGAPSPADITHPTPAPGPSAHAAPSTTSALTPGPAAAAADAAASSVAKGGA

Work on anti-VEGFB antibody (CSL346) yielded a Surrogate potency for VEGF-B binding by ELISA (relative to CSL346 reference standard) (% relative to reference standard) [1] of 95, a Surrogate potency for VEGF-B binding by ELISA (relative to CSL346 reference standard) (% relative to reference standard) [2] of 113 and a Surrogate potency for VEGF-B binding by ELISA (relative to CSL346 reference standard) (% relative to reference standard) [3] of 105. The Surrogate potency for VEGF-B binding by ELISA (relative to CSL346 reference standard) (% relative to reference standard) [4] was 107, the Surrogate potency for VEGF-B binding by ELISA (relative to CSL346 reference standard) (% relative to reference standard) [5] was 92 and the Surrogate potency for VEGF-B binding by ELISA (relative to CSL346 reference standard) (% relative to reference standard) [6] was 96. The Surrogate potency for VEGF-B binding by ELISA (relative to CSL346 reference standard) (% relative to reference standard) [7] was 115, the Surrogate potency for VEGF-B binding by ELISA (relative to CSL346 reference standard) (% relative to reference standard) [8] was 105 and the Surrogate potency for VEGF-B binding by ELISA (relative to CSL346 reference standard) (% relative to reference standard) [9] was 105. It also gave a Surrogate potency for VEGF-B binding by ELISA (relative to CSL346 reference standard) (% relative to reference standard) [10] of 95, a Surrogate potency for VEGF-B binding by ELISA (relative to CSL346 reference standard) (% relative to reference standard) [11] of 101 and a Surrogate potency for VEGF-B binding by ELISA (relative to CSL346 reference standard) (% relative to reference standard) [12] of 98. For the same substance, the Surrogate potency for VEGF-B binding by ELISA (relative to CSL346 reference standard) (% relative to reference standard) [13] was 101, the Surrogate potency for VEGF-B binding by ELISA (relative to CSL346 reference standard) (% relative to reference standard) [14] was 109 and the Surrogate potency for VEGF-B binding by ELISA (relative to CSL346 reference standard) (% relative to reference standard) [15] was 109. For the same substance, the Surrogate potency for VEGF-B binding by ELISA (relative to CSL346 reference standard) (% relative to reference standard) [16] was 106, the Surrogate potency for VEGF-B binding by ELISA (relative to CSL346 reference standard) (% relative to reference standard) [17] was 136 and the Surrogate potency for VEGF-B binding by ELISA (relative to CSL346 reference standard) (% relative to reference standard) [18] was 110.
